According to article PMC6901024 (Journal of the American Chemical Society, 2019):

Target: the molecule itself
Experiment: SEC

B1: His6-FtmOx1-Y140F (enzyme)
chain: MTVDSKPQLQRLAADADVDRMCRLLEEDGAFILKGLLPFDVVESFNRELDVQMAIPPPKGERLLADKYPPHFKYVPNVATTCPTFRNTVLINPVIHAICEAYFQRTGDYWLSAAFLREIESGMPAQPFHRDDATHPLMHFQPLEAPPVSLSVIFPLTEFTEENGATEVILGSHRWTEVGTPERDQAVLATMDPGDVLIVRQRVVHAGGGNRTTAGKPRRVVLAYFNSVQLTPFETYRTMPREMVESMTVLGQRMLGWRTMKPSDPNIVGINLIDDKRLENVLQLKAADSPA
Question: Which “stoichiometry N” value does the source give for B1 here?
Answer: 2
